Results as given in patent US20260263580A1.

Assays:
[1] = target: DBNcc-HI E1/E2 complexes from lysates of HEK293 cells transfected with an E1/E2 expression plasmid (hepatitis C virus genotype 3a, strain DBNcc-HI) (UniProt Q81258); test: ELISA on lectin-captured E1/E2 complexes, negative control (FIG. 11)
[2] = target: J6cc-HI E1/E2 complexes from lysates of HEK293 cells transfected with an E1/E2 expression plasmid (hepatitis C virus genotype 2a, strain J6cc-HI) (UniProt P26660); test: as above
[3] = target: TNcc-HI E1/E2 complexes from lysates of HEK293 cells transfected with an E1/E2 expression plasmid (hepatitis C virus genotype 1a, strain TNcc-HI) (UniProt P26664); test: as above
[4] = target: DBNcc-HI E1/E2 complexes from lysates of HEK293 cells transfected with an E1/E2 expression plasmid (hepatitis C virus genotype 3a, strain DBNcc-HI) (UniProt Q81258); test: ELISA on lectin-captured E1/E2 complexes, negative control (FIG. 13)
[5] = target: J6cc-HI E1/E2 complexes from lysates of HEK293 cells transfected with an E1/E2 expression plasmid (hepatitis C virus genotype 2a, strain J6cc-HI) (UniProt P26660); test: as above
[6] = target: TNcc-HI E1/E2 complexes from lysates of HEK293 cells transfected with an E1/E2 expression plasmid (hepatitis C virus genotype 1a, strain TNcc-HI) (UniProt P26664); test: as above
[7] = target: DBNcc-HI E1/E2 complexes from lysates of HEK293 cells transfected with an E1/E2 expression plasmid (hepatitis C virus genotype 3a, strain DBNcc-HI) (UniProt Q81258); test: ELISA on lectin-captured E1/E2 complexes, negative control (FIG. 12)
[8] = target: J6cc-HI E1/E2 complexes from lysates of HEK293 cells transfected with an E1/E2 expression plasmid (hepatitis C virus genotype 2a, strain J6cc-HI) (UniProt P26660); test: as above
[9] = target: TNcc-HI E1/E2 complexes from lysates of HEK293 cells transfected with an E1/E2 expression plasmid (hepatitis C virus genotype 1a, strain TNcc-HI) (UniProt P26664); test: as above
[10] = target: envelope proteins E1/E2 of high-yield genotype 3a recombinant virus DBNcc-HI (hepatitis C virus genotype 3a, strain DBNcc-HI) (UniProt Q81258); test: cell-based or functional assay
[11] = target: envelope proteins E1/E2 of high-yield genotype 1a recombinant virus TNcc-HI (hepatitis C virus genotype 1a, strain TNcc-HI) (UniProt P26664); test: cell-based or functional assay
[12] = target: envelope proteins E1/E2 of the genotype 1a HCV seed stock derived from TNcc-PP-18 (hepatitis C virus genotype 1a, strain TNcc) (UniProt P26664); test: cell-based or functional assay
[13] = target: envelope proteins E1/E2 of the original genotype 3a recombinant virus DBN3acc (hepatitis C virus genotype 3a, strain DBN3acc) (UniProt Q81258); test: cell-based or functional assay
[14] = target: envelope proteins E1/E2 of high-yield genotype 2a recombinant virus J6cc-HI (hepatitis C virus genotype 2a, strain J6cc-HI) (UniProt P26660); test: cell-based or functional assay

ECL sheep anti-mouse IgG horseradish-peroxidase linked whole antibody (GE Healthcare)
OD at 450 nm [1]: 0.05 OD
OD at 450 nm [2]: 0.05 OD
OD at 450 nm [3]: 0.05 OD
OD at 450 nm [4]: 0.05 OD
OD at 450 nm [5]: 0.05 OD
OD at 450 nm [6]: 0.05 OD
OD at 450 nm [7]: 0.05 OD
OD at 450 nm [8]: 0.05 OD
OD at 450 nm [9]: 0.05 OD

human monoclonal antibody AR3A
fold increased neutralization sensitivity against 3a(DBN) [10]: 1250 fold
fold increased neutralization sensitivity against 1a(TN) [11]: 300 fold
fold increased neutralization sensitivity against 1a(TN) [12]: 3 fold
fold increased neutralization sensitivity against 3a(DBN) [13]: 167 fold
fold increased neutralization sensitivity against 2a(J6) [14]: 440 fold

human monoclonal antibody AR4A
fold increased neutralization sensitivity against 3a(DBN) [10]: 220 fold
fold increased neutralization sensitivity against 1a(TN) [11]: 2400 fold
fold increased neutralization sensitivity against 1a(TN) [12]: 15 fold
fold increased neutralization sensitivity against 3a(DBN) [13]: 22 fold
fold increased neutralization sensitivity against 2a(J6) [14]: 12 fold
